Reference: publication PMC10613257

Legend:
[1] = target: insulin-like growth factor binding protein 5 (IGFBP5), full length, wild type (UniProt P24593); experiment: FP; settings: enzyme
[2] = target: insulin-like growth factor binding protein 5 (IGFBP5), full length, wild type (UniProt P24593); experiment: fluorescence polarisation; FAM-labelled FL IGFBP5 at 5 nM; enzyme serially diluted from 10 µM to 0.5 nM; 1X PBS; 384-well plates; catalytically inactive enzymes

Sequence of insulin-like growth factor binding protein 5 (IGFBP5), full length, wild type (P24593 21-272): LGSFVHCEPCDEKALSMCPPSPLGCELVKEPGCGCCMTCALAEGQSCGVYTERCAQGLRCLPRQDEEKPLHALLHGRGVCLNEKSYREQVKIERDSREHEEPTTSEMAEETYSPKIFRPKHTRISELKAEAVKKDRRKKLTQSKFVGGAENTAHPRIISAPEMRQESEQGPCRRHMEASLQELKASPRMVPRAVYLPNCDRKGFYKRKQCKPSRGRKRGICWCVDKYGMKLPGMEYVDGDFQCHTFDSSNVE

Kd [1] [nM] | fold weaker binding than PAPP-A E483A [2] [fold] | Substance
2640 |  | PAPP-A2 E500Q (catalytically inactive) (from UniProt Q9BXP8 235-1791)
 | 11 | PAPP-A2 E500Q (catalytically inactive) (from UniProt Q9BXP8 235-1791) (enzyme)
